# Measurements published in the supplement of paper PMC9112550, “Optimization of the antimicrobial peptide Bac7 by deep mutational scanning” (BMC Biology, 2022).
# Test system: Escherichia coli TOP10
# Test: shrunken log2 fold change of peptide-encoding DNA abundance (4.5 h post-induction vs induction); higher = less antimicrobial activity (less host growth inhibition)
# Details: time post-induction: 4.5 h; library: site-saturation at positions 5, 18, 19, 20
# 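Note: peptides expressed intracellularly from a pBAD plasmid library in pooled LB shake-flask culture, induced with 0.3% L-arabinose, DNA abundance read by NGS, three biological replicates, DESeq2 with apeglm shrinkage.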
row,Sequence,shrunken log2 fold change
1,RRIRARPPRLPRPRPRPEMSPRP,0.116
2,RRIRTRPPRLPRPRPRPLCKPRP,-0.257
3,RRIRLRPPRLPRPRPRPMRLPRP,0.0402
4,RRIRWRPPRLPRPRPRPLEWPRP,0.0624
5,RRIRVRPPRLPRPRPRPRAPPRP,0.831
6,RRIRERPPRLPRPRPRPQTLPRP,-0.324
7,RRIRSRPPRLPRPRPRPESGPRP,0.351
8,RRIRWRPPRLPRPRPRPIYWPRP,-0.208
9,RRIRERPPRLPRPRPRPQYTPRP,-1.16
10,RRIRMRPPRLPRPRPRPMTKPRP,0.0956
11,RRIRLRPPRLPRPRPRPHTDPRP,-0.223
12,RRIRYRPPRLPRPRPRPYFCPRP,-1.09
13,RRIRWRPPRLPRPRPRPFMGPRP,0.0373
14,RRIRERPPRLPRPRPRPGMLPRP,-0.0705
15,RRIRWRPPRLPRPRPRPGVWPRP,0.519
16,RRIRYRPPRLPRPRPRPYHEPRP,-0.194
17,RRIRLRPPRLPRPRPRPPFGPRP,0.0044
18,RRIRYRPPRLPRPRPRPFSQPRP,0.0654
19,RRIRVRPPRLPRPRPRPDGEPRP,0.487
20,RRIRYRPPRLPRPRPRPDEQPRP,-0.00172

row,Sequence,shrunken log2 fold change
1,RRIRHRPPRLPRPRPRPGPSPRP,0.188
2,RRIRRRPPRLPRPRPRPSTPPRP,0.225
3,RRIRPRPPRLPRPRPRPAWLPRP,0.513
4,RRIRKRPPRLPRPRPRPVAKPRP,3.34
5,RRIRIRPPRLPRPRPRPYTGPRP,-0.177
6,RRIRHRPPRLPRPRPRPLNMPRP,-1.26
7,RRIRIRPPRLPRPRPRPCWAPRP,-0.283
8,RRIRVRPPRLPRPRPRPFQFPRP,-0.171
9,RRIRLRPPRLPRPRPRPIKFPRP,-0.0676
10,RRIRIRPPRLPRPRPRPPAPPRP,0.298
11,RRIRARPPRLPRPRPRPEYHPRP,0.0454
12,RRIRGRPPRLPRPRPRPHGVPRP,0.00437
13,RRIRHRPPRLPRPRPRPHMKPRP,0.181
14,RRIRYRPPRLPRPRPRPLCHPRP,-1.18
15,RRIRVRPPRLPRPRPRPDRYPRP,-0.00296
16,RRIRVRPPRLPRPRPRPACEPRP,0.165
17,RRIRHRPPRLPRPRPRPTWEPRP,0.0143
18,RRIRKRPPRLPRPRPRPNHHPRP,-0.182
19,RRIRLRPPRLPRPRPRPHTAPRP,-0.00187
20,RRIRNRPPRLPRPRPRPCNTPRP,-0.442

row,Sequence,shrunken log2 fold change
1,RRIRDRPPRLPRPRPRPDNKPRP,-0.413
2,RRIRLRPPRLPRPRPRPFLEPRP,-0.106
3,RRIRKRPPRLPRPRPRPCACPRP,0.0293
4,RRIRLRPPRLPRPRPRPPCVPRP,-0.0544
5,RRIRRRPPRLPRPRPRPHSSPRP,-0.00646
6,RRIRLRPPRLPRPRPRPTCHPRP,0.000681
7,RRIRDRPPRLPRPRPRPLSFPRP,0.0422
8,RRIRRRPPRLPRPRPRPNMQPRP,0.183
9,RRIRSRPPRLPRPRPRPDVCPRP,0.0421
10,RRIRIRPPRLPRPRPRPQACPRP,0.126
11,RRIRNRPPRLPRPRPRPIREPRP,-0.0204
12,RRIRWRPPRLPRPRPRPANSPRP,0.0236
13,RRIRARPPRLPRPRPRPCQPPRP,-0.0379
14,RRIRNRPPRLPRPRPRPNFQPRP,-0.0807
15,RRIRPRPPRLPRPRPRPMHDPRP,-0.0561
16,RRIRPRPPRLPRPRPRPHPTPRP,0.17
17,RRIRMRPPRLPRPRPRPRDPPRP,0.705
18,RRIRSRPPRLPRPRPRPYNQPRP,-0.642
19,RRIRVRPPRLPRPRPRPDLAPRP,3.31
20,RRIRLRPPRLPRPRPRPTFKPRP,-0.0433
